Results: patent US20240252614A1

Legend:
Conditions in all cases: remark: other sources report otherwise
hMPV043 (hMPV A), Q6WB98 [1] = test: BLI, no stress
hMPV044 (hMPV A), Q6WB98 [2] = test: BLI, no stress
hMPV045 (hMPV A), Q6WB98 [3] = test: BLI, no stress
hMPV046 (hMPV A), Q6WB98 [4] = test: BLI, no stress
hMPV047 (hMPV A), Q6WB98 [5] = test: BLI, no stress
hMPV049 (hMPV A), Q6WB98 [6] = test: BLI, no stress
hMPV050 (hMPV A), Q6WB98 [7] = test: BLI, no stress
hMPV054 (hMPV A), Q6WB98 [8] = test: BLI, no stress
hMPV055 (hMPV A), Q6WB98 [9] = test: BLI, no stress
hMPV059 (hMPV A), Q6WB98 [10] = test: BLI, no stress
hMPV060 (hMPV A), Q6WB98 [11] = test: BLI, no stress
hMPV061 (hMPV A), Q6WB98 [12] = test: BLI, no stress
hMPV063 (hMPV A), Q6WB98 [13] = test: BLI, no stress
hMPV066 (hMPV A), Q6WB98 [14] = test: BLI, no stress
hMPV068 (hMPV A), Q6WB98 [15] = test: BLI, no stress
hMPV075 (hMPV A), Q6WB98 [16] = test: BLI, no stress
hMPV077 (hMPV A), Q6WB98 [17] = test: BLI, no stress
[18] = target: hMPV A F WT Control (hMPV A), Q6WB98; test: BLI, 50C stress
hMPV043 (hMPV A), Q6WB98 [19] = test: BLI, 50C stress
hMPV044 (hMPV A), Q6WB98 [20] = test: BLI, 50C stress
hMPV045 (hMPV A), Q6WB98 [21] = test: BLI, 50C stress
hMPV046 (hMPV A), Q6WB98 [22] = test: BLI, 50C stress
hMPV047 (hMPV A), Q6WB98 [23] = test: BLI, 50C stress
hMPV048 (hMPV A), Q6WB98 = test: BLI, 50C stress
hMPV049 (hMPV A), Q6WB98 [24] = test: BLI, 50C stress
hMPV050 (hMPV A), Q6WB98 [25] = test: BLI, 50C stress
hMPV052 (hMPV A), Q6WB98 = test: BLI, 50C stress
hMPV053 (hMPV A), Q6WB98 = test: BLI, 50C stress
hMPV054 (hMPV A), Q6WB98 [26] = test: BLI, 50C stress
hMPV055 (hMPV A), Q6WB98 [27] = test: BLI, 50C stress
hMPV058 (hMPV A), Q6WB98 = test: BLI, 50C stress
hMPV059 (hMPV A), Q6WB98 [28] = test: BLI, 50C stress
hMPV060 (hMPV A), Q6WB98 [29] = test: BLI, 50C stress
hMPV061 (hMPV A), Q6WB98 [30] = test: BLI, 50C stress
hMPV062 (hMPV A), Q6WB98 = test: BLI, 50C stress
hMPV063 (hMPV A), Q6WB98 [31] = test: BLI, 50C stress
hMPV066 (hMPV A), Q6WB98 [32] = test: BLI, 50C stress
hMPV067 (hMPV A), Q6WB98 = test: BLI, 50C stress
hMPV068 (hMPV A), Q6WB98 [33] = test: BLI, 50C stress
hMPV069 (hMPV A), Q6WB98 = test: BLI, 50C stress
hMPV071 (hMPV A), Q6WB98 = test: BLI, 50C stress
hMPV075 (hMPV A), Q6WB98 [34] = test: BLI, 50C stress
hMPV077 (hMPV A), Q6WB98 [35] = test: BLI, 50C stress
hMPV087 (hMPV A), Q6WB98 = test: BLI, 58C stress

B1: MPE8 mAb (antibody, V domains shown)
VH: EVQLVESGGGLVKPGGSLRLSCAASGFTFSSYSMNWVRQAPGKGLEWVSSISASSSYSDYADSAKGRFTISRDNAKTSLFLQMNSLRAEDTAIYFCARARATGYSSITPYFDIWGQGTLVTVSS
VL: QSVVTQTPSVSGAPGQRVTISCTGSSSNIGAGYDVHWYQQLPGTAPKLLIYDNNNRPSGVPDRFSASKSGTSASLAITGLQAEDEADYYCQSYDRNLSGVFGTGTKVTVL
B1 gave a Response Shift (hMPV043 (hMPV A), Q6WB98 [1]) of 0.558 nm, a Response Shift (hMPV044 (hMPV A), Q6WB98 [2]) of 0.72 nm and a Response Shift (hMPV045 (hMPV A), Q6WB98 [3]) of 0.603 nm. For the same binder, the Response Shift (hMPV046 (hMPV A), Q6WB98 [4]) was 0.603 nm, the Response Shift (hMPV047 (hMPV A), Q6WB98 [5]) was 0.259 nm and the Response Shift (hMPV049 (hMPV A), Q6WB98 [6]) was 0.672 nm. It also gave a Response Shift (hMPV050 (hMPV A), Q6WB98 [7]) of 0.641 nm, a Response Shift (hMPV054 (hMPV A), Q6WB98 [8]) of 0.73 nm and a Response Shift (hMPV055 (hMPV A), Q6WB98 [9]) of 0.581 nm. It also gave a Response Shift (hMPV059 (hMPV A), Q6WB98 [10]) of 0.666 nm, a Response Shift (hMPV060 (hMPV A), Q6WB98 [11]) of 0.84 nm and a Response Shift (hMPV061 (hMPV A), Q6WB98 [12]) of 0.813 nm. For the same binder, the Response Shift (hMPV063 (hMPV A), Q6WB98 [13]) was 0.849 nm, the Response Shift (hMPV066 (hMPV A), Q6WB98 [14]) was 0.779 nm and the Response Shift (hMPV068 (hMPV A), Q6WB98 [15]) was 0.738 nm. The Response Shift (hMPV075 (hMPV A), Q6WB98 [16]) was 0.777 nm, the Response Shift (hMPV077 (hMPV A), Q6WB98 [17]) was 0.706 nm and the Response Shift [18] was 0.174 nm. For the same binder, the Response Shift (hMPV043 (hMPV A), Q6WB98 [19]) was 0.501 nm, the Response Shift (hMPV044 (hMPV A), Q6WB98 [20]) was 0.722 nm and the Response Shift (hMPV045 (hMPV A), Q6WB98 [21]) was 0.139 nm. The Response Shift (hMPV046 (hMPV A), Q6WB98 [22]) was 0.412 nm, the Response Shift (hMPV047 (hMPV A), Q6WB98 [23]) was -0.024 nm and the Response Shift (hMPV048 (hMPV A), Q6WB98) was 0.377 nm. For the same binder, the Response Shift (hMPV049 (hMPV A), Q6WB98 [24]) was 0.343 nm, the Response Shift (hMPV050 (hMPV A), Q6WB98 [25]) was 0.14 nm and the Response Shift (hMPV052 (hMPV A), Q6WB98) was 0.482 nm. The Response Shift (hMPV053 (hMPV A), Q6WB98) was 0.422 nm, the Response Shift (hMPV054 (hMPV A), Q6WB98 [26]) was 0.381 nm and the Response Shift (hMPV055 (hMPV A), Q6WB98 [27]) was 0.098 nm. The Response Shift (hMPV058 (hMPV A), Q6WB98) was 0.403 nm, the Response Shift (hMPV059 (hMPV A), Q6WB98 [28]) was 0.344 nm and the Response Shift (hMPV060 (hMPV A), Q6WB98 [29]) was 0.712 nm. For the same binder, the Response Shift (hMPV061 (hMPV A), Q6WB98 [30]) was 0.537 nm, the Response Shift (hMPV062 (hMPV A), Q6WB98) was 0.253 nm and the Response Shift (hMPV063 (hMPV A), Q6WB98 [31]) was 0.57 nm. For the same binder, the Response Shift (hMPV066 (hMPV A), Q6WB98 [32]) was 0.666 nm, the Response Shift (hMPV067 (hMPV A), Q6WB98) was 0.571 nm and the Response Shift (hMPV068 (hMPV A), Q6WB98 [33]) was 0.194 nm. It also gave a Response Shift (hMPV069 (hMPV A), Q6WB98) of 0.355 nm, a Response Shift (hMPV071 (hMPV A), Q6WB98) of 0.671 nm and a Response Shift (hMPV075 (hMPV A), Q6WB98 [34]) of 0.506 nm. It also gave a Response Shift (hMPV077 (hMPV A), Q6WB98 [35]) of 0.472 nm and a Response Shift (hMPV087 (hMPV A), Q6WB98) of 0.805 nm.
